T1: EGF5-6-Fc (DLK1 deletion mutant without the 1st to 4th EGF-like repeat domains) (human, UniProt P80370 170-302)
T1 construct: also called 5M-Fc; not shown: human antibody Fc region of the pYK602-Fc vector and any SfiI-junction residues
T1 sequence: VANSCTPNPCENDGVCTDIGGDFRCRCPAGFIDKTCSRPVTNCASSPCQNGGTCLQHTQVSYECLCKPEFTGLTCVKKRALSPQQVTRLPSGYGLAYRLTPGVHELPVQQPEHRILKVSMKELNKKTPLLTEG

T2: C-terminally active myostatin (R&D systems) (UniProt O14793 267-375, limits assumed)
T2 construct: mature
T2 sequence (looked up): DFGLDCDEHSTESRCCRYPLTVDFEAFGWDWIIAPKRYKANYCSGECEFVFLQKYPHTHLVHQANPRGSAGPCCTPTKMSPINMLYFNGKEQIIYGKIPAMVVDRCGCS

B1: ACVR2B-Fc fusion protein (Fc fusion, not shown: a dimerising Fc or GST; small tags and cut ends)
chain: SGRGEAETRECIYYNANWELERTNQSGLERCEGEQDKRLHCYASWRNSSGTIELVKKGCWLDDFNCYDRQECVATEENPQVYFCCCEGNFCNERFTHLPEAGGPEVTYEPPPTAPTLLT
notes: also called water-soluble ACVR2B
B2: human antibody B09 (full-length IgG) (antibody, V domains shown)
VH: QMQLVESGGRLVRPGGSLRLSCAASGFPFTSYAMNWVRQTPGKGLEWVSTITATSGKTYYADSVKGRFTISRDNSRNTLFLQMNSLRAEDTAVYYCVRGESCSGGACSDFDYWGQGALVTVSS
VL: QLVLTQPASVSGSPGQSVTISCTGTSSDIGRYNRVSWYQHHPGKAPKLILNDVTTRPSGFSNRFSGSKSGNTASLTISGLQAEDEADYSCGSYAGSYTYVFGTGTKVTVL
notes: Converted into full-length IgG with pNATAB H and pNATAB L vectors; also called B09 antibody; DLK1 antibody B09
B3: ACVR1A-Fc (Fc fusion, UniProt Q04771 21-124, looked up)
chain: MEDEKPKVNPKLYMCVCEGLSCGNEDHCEGQQCFSSLSINDGFHVYQKGCFQVYEQGKMTCKTPPSPGQAVECCQGDWCNRNITAQLPTKGKSFPGTQNFHLEV
notes: Control; origin not described; not shown: Fc; not described
B4: JM-Fc (juxtamembrane region of DLK1, all six EGF-like repeat domains deleted) (Fc fusion)
chain: KKRALSPQQVTRLPSGYGLAYRLTPGVHELPVQQPEHRILKVSMKELNKKTPLLTEG
notes: also called juxtamembrane region (JM); not shown: human antibody Fc of the pYK602-Fc vector and the SfiI junction residues between JM and Fc
B5: DLK1-Fc fusion protein (Fc fusion, not shown: a dimerising Fc or GST)
chain: AECFPACNPQNGFCEDDNVCRCQPGWQGPLCDQCVTSPGCLHGLCGEPGQCICTDGWDGELCDRDVRACSSAPCANNGTCVSLDDGLYECSCAPGYSGKDCQKKDGPCVINGSPCQHGGTCVDDEGRASHASCLCPPGFSGNFCEIVANSCTPNPCENDGVCTDIGGDFRCRCPAGFIDKTCSRPVTNCASSPCQNGGTCLQHTQVSYECLCKPEFTGLTCVKKRALSPQQVTRLPSGYGLAYRLTPGVHELPVQQPEHRILKVSMKELNKKTPLLTEG
notes: also called DLK-Fc

Assays:
[1] = biological target: T1, EGF5-6-Fc (DLK1 deletion mutant without …); experiment: SPR (ProteOn XPR36), ACVR2B-Fc coated on the chip, Fc channel as reference
Procedure: (§1) This experiment was performed using a ProteOn XPR36 instrument (Bio-Rad). First, a sensor chip (GLC) was activated by reacting 0.1 M EDC and 0.025 M sulfo-NHS (Bio-Rad) for 60 seconds. […] The coating procedure was completed by allowing 1 M ethanolamine-HCl) (pH 8.5) to flow at the coated chip for 200 seconds. To test the bound proteins, the chip was rotated at an angle of 90°, and stabilized by allowing DPBST (PBS with 0.005% Tween 20) to flow on the chip for 30 minutes.

[2] = biological target: B5; experiment: SPR (ProteOn XPR36)
[3] = biological target: T2, C-terminally active myostatin (R&D …); experiment: ELISA on coated myostatin (1 ug/ml), Fc-HRP
[4] = biological target: T2, C-terminally active myostatin (R&D …); experiment: ELISA, coating 1 ug/ml myostatin, binding 10 nM, anti-human Fc HRP
[5] = biological target: B1; experiment: SPR (ProteOn XPR36), ACVR2B-Fc coated on the chip, Fc channel as reference
Procedure: as §1

[6] = biological target: B1; experiment: SPR (ProteOn XPR36), ACVR2B-Fc coated
Procedure: as §1

[7] = biological target: T2, C-terminally active myostatin (R&D …); experiment: ELISA on coated myostatin, one site binding (hyperbola) fit
Procedure: An immunoplate was coated overnight with 1 μg/ml of C-terminally active myostatin (R&D systems) at 4° C., washed three times with 0.05% PBST Tween 20, and then blocked with 4% skim milk/0.05% PBST Tween 20 at room temperature for 30 minutes. […] Finally, when the reaction was blocked with 2.5 M H₂SO₄, the optical densities were measured and analyzed at 420 nm.
Based on the experiment, a KD value was also determined by analyzing one site binding (hyperbola) using a GraphPad Reism 4 program.

[8] = biological target: B1; experiment: SPR (ProteOn XPR36), ACVR2B-Fc coated, in the presence of B09

Binder: B1
binding result [1]: binds

Binder: B2
Kd [2]: 0.0109 nM | koff [2]: 6.49e-05 s⁻¹ | kon [2]: 3.41e+06 M⁻¹ s⁻¹

Binder: B3
binding result [3]: no binding (tested: 1 nM)

Binder: B4
binding result [4]: binds | binding result [5]: no binding

Binder: B5
Kd [6]: 1.31 nM | koff [6]: 0.000434 s⁻¹ | kon [6]: 331000 M⁻¹ s⁻¹ | Kd [7]: 22.8 nM | Kd [8]: 0.407 nM | koff [8]: 0.000255 s⁻¹ | kon [8]: 626000 M⁻¹ s⁻¹

Reference: patent publication US20150030595A1 (ANTIBODY AND RECEPTOR THERAPEUTICS, published 2015)
